Reference: US20250027068
Numbering of substitutions follows the chain as printed.

B1: PRT-437 (protein)
chain: MSQTEDSESLQRLRDIEDFQAEKKKQNVVYTKWLDGVDVKDHDFRKIVDGNEAYYATPLLNGRGFYDINKDFNRDSDKCAAAVAANMFHYWLDRNRDNVDRFLRQNPEKHGIIELPDGQLKLSDFLNTYESDDGYRDKSKLFDFISNNFNGPVWTDKLLDNYINGYAYNYKYGRTIEDPTKNTSKINFFKEVFNEKILTNNHSIRNQNEFSVLLSEALYTGKAIGLSYGPAGLRHSLGHIISVWGADLDADGNVVAIYVTDSDDKKLTIGDERVGLKRYKISTDDEGRLRLTAYEETHNTGGQIRGLWTLDTGKQAWADYFDKTEQTGTDQAEQ
B2: PRT-439 (protein)
chain: B1 chain with E52I, T175L
B3: PRT-414 (protein)
chain: MTITSVWTKGVTPPTPEDFRYNNEDVLHAPYVANQGWYDITKTFDGKDNLLCGAATAGNMLHWWFDQNKEEIERYLKKHPEKQKIIFGNQELFDVKAAIDTKDSQTNSKLFNYFRDKAFPNLSARQLGVMPDLVLDMFINGYYLNLGKTQSTDVNRPYQDKDKRGGIFDAVFTRGDQTTLLTARHDLKNKGLNEISDLIKQELTEGKALALSHTYANVRINHVINLWGADFDAEGNLIAIYVTDSDANASIGMKKYFVGVNANGKVAISAKKIEGDNIGAQVLGLFTLSTGQDIWQKLS
B4: PRT-422 (protein)
chain: B3 chain with G88N, A249P
B5: PRT-415 (protein)
chain: B3 chain with G88N, R115L
B6: PRT-423 (protein)
chain: B3 chain with G88N, V260R
B7: PRT-416 (protein)
chain: B3 chain with G88N, G147P
B8: PRT-399 (protein)
chain: MVTSVWTKGVTPPADFTQGEDVFHAPYVANQGWYDITKTFNGKDDLLCGAATAGNMLHWWFDQNKEYIEAYLKKHPEKQKIMFGDQELLDVRKAINTKGSQKNSELFNYFRDKAFPNLSARRLGVMPDLVLDMFINGYYLNVTKTQTTDVNRTYQEKDKRGGIFDAVFTRGDQSKLLTSRHDFKEKGLKEISDLIKQELTEGKALGLSHTYANVRINHVINLWGADFDSDGNLKAIYVTDSDSNASIGMKKYVVGVNSAGKVAISAKEIKEDNIGAQVLGLFTLSTGQDIWNQTN
B9: PRT-400 (protein)
chain: B8 chain with V28D, V253F
B10: PRT-408 (protein)
chain: B8 chain with M126F, V253F
B11: PRT-407 (protein)
chain: B8 chain with M82I, V253F
B12: PRT-383 (protein)
chain: MVTSVWTKGVTPPTNFTYGEDVLHAPYVANQGWYDITKTFNGKDDLLCGAATAGNMLHWWFDQNKEQIENYLKKHPEKQKINFNGEQMFDVKEAIDTKDSQLDSKLFDYFKEKAFPYLSTKHLGVFPDHVIDMFINGYRLSLTNHGPTPVKRGSKDPRGGIFDAVFTRGDQSKLLTNRHDFKEKTLKEISDLIKQELTEGKALGISHTYANVRINHVINLWGADFDAEGNLEAIYVTDSDSNASIGMKKYFVGVNSNGKVAISAKEIEEDNIGAQVLGLFTLSTGQDIWNQTN
B13: PRT-391 (protein)
chain: B12 chain with D108E, P157K
B14: PRT-384 (protein)
chain: B12 chain with D108E, Y117N
B15: PRT-392 (protein)
chain: B12 chain with D108E, D170V

Molecular target: pooled human IgG (human IgG1, 2, 3 and 4)

Row | Protein | Enzyme Activity Endpoint Assay (purified): Fab′2 | Enzyme Activity Endpoint Assay (purified): Fc | Enzyme Activity Endpoint Assay (purified): IgG | Enzyme Activity Endpoint Assay (purified): scIgG | Enzyme Activity Endpoint Assay: Fab′2 | Enzyme Activity Endpoint Assay: Fc | Enzyme Activity Endpoint Assay: IgG | Enzyme Activity Endpoint Assay: scIgG
1 | B1 | 445 ng/µL | 306 ng/µL | 0 ng/µL | 263 ng/µL | 445 ng/µL | 306 ng/µL | 0 ng/µL | 263 ng/µL
2 | B2 | 179 ng/µL | 191 ng/µL | 325 ng/µL | 528 ng/µL | 179 ng/µL | 191 ng/µL | 325 ng/µL | 528 ng/µL
3 | B3 | 496 ng/µL | 341 ng/µL | 77 ng/µL | 129 ng/µL | 496 ng/µL | 341 ng/µL | 77 ng/µL | 129 ng/µL
4 | B4 | 494 ng/µL | 348 ng/µL | 69 ng/µL | 136 ng/µL | 494 ng/µL | 348 ng/µL | 69 ng/µL | 136 ng/µL
5 | B5 | 46 ng/µL | 225 ng/µL | 164 ng/µL | 630 ng/µL | 46 ng/µL | 225 ng/µL | 164 ng/µL | 630 ng/µL
6 | B6 | 398 ng/µL | 0 ng/µL | 1660 ng/µL | 0 ng/µL | 398 ng/µL | 0 ng/µL | 1660 ng/µL | 0 ng/µL
7 | B7 | – | – | – | – | 125 ng/µL | 258 ng/µL | 96 ng/µL | 453 ng/µL
8 | B8 | 0 ng/µL | 0 ng/µL | 1580 ng/µL | 0 ng/µL | 0 ng/µL | 0 ng/µL | 1580 ng/µL | 0 ng/µL
9 | B9 | 556 ng/µL | 333 ng/µL | 176 ng/µL | 0 ng/µL | 556 ng/µL | 333 ng/µL | 176 ng/µL | 0 ng/µL
10 | B10 | – | – | – | – | 564 ng/µL | 334 ng/µL | 179 ng/µL | 0 ng/µL
11 | B11 | 209 ng/µL | 277 ng/µL | 90 ng/µL | 396 ng/µL | 209 ng/µL | 277 ng/µL | 90 ng/µL | 396 ng/µL
12 | B12 | 581 ng/µL | 379 ng/µL | 0 ng/µL | 230 ng/µL | 581 ng/µL | 379 ng/µL | 0 ng/µL | 230 ng/µL
13 | B13 | 498 ng/µL | 361 ng/µL | 29 ng/µL | 192 ng/µL | 498 ng/µL | 361 ng/µL | 29 ng/µL | 192 ng/µL
14 | B14 | 365 ng/µL | 0 ng/µL | 1510 ng/µL | 0 ng/µL | 365 ng/µL | 0 ng/µL | 1510 ng/µL | 0 ng/µL
15 | B15 | 513 ng/µL | 354 ng/µL | 0 ng/µL | 196 ng/µL | 513 ng/µL | 354 ng/µL | 0 ng/µL | 196 ng/µL
